Experiments:
Staphylococcus. aureus [1] = test: Lab trials 2b (in vitro) for synergy, components added on top of the culture; assay type: cell-based
From the text: b) Lab trials 2b (in vitro) for synergy.

Staphylococcus. aureus [2] = test: Lab trials 2a (in vitro) for synergy, components added in wells for diffusion; assay type: cell-based
From the text: a) Lab trials 2a (in vitro) for synergy.

B1: Serratiopeptidase (protein, UniProt P07268 17-487, looked up)
Serralysin: AATTGYDAVDDLLHYHERGNGIQINGKDSFSNEQAGLFITRENQTWNGYKVFGQPVKLTFSFPDYKFSSTNVAGDTGLSKFSAEQQQQAKLSLQSWADVANITFTEVAAGQKANITFGNYSQDRPGHYDYGTQAYAFLPNTIWQGQDLGGQTWYNVNQSNVKHPATEDYGRQTFTHEIGHALGLSHPGDYNAGEGNPTYRDVTYAEDTRQFSLMSYWSETNTGGDNGGHYAAAPLLDDIAAIQHLYGANLSTRTGDTVYGFNSNTGRDFLSTTSNSQKVIFAAWDAGGNDTFDFSGYTANQRINLNEKSFSDVGGLKGNVSIAAGVTIENAIGGSGNDVIVGNAANNVLKGGAGNDVLFGGGGADELWGGAGKDIFVFSAASDSAPGASDWIRDFQKGIDKIDLSFFNKEAQSSDFIHFVDHFSGAAGEALLSYNASNNVTDLSVNIGGHQAPDFLVKIVGQVDVATDFIV
notes: proteolytic enzyme isolated from the non-pathogenic Enterobacteria Serratia E15, CAS 37312-62-2
Inhibition zone In diameter cm for Staphylococcus. aureus (Staphylococcus. aureus [1]): 0.61 cm
Inhibition zone diameter In cm for Staphylococcus. aureus (Staphylococcus. aureus [2]): 0.5 cm

— patent US20090317364A1, “NOVEL COMPOSITIONS FOR PREVENTION AND TREATMENT OF MASTITIS AND METRITIS” (priority 2006, published 2009)
